Experimental data taken from patent US20220072097A1, “PEPTIDES AND METHODS FOR TREATING NEURODEGENERATIVE DISORDERS” (OHIO STATE INNOVATION FOUNDATION, priority 2016, published 2022).

Columns and labels:
[1] = target: T1, human APP fragment (SEQ ID NO:1) (Homo sapiens, UniProt P05067); experiment: Kinetic ELISA binding of PTPσ fragments to human APP fragment; conditions: recombinant proteins, compared with IG1,2
T1 construct: made in house
Experimental: (§1) FIG. 20 Ligand binding site of PTPσ IG1 domain interacts with APP. Binding of human APP fragment (SEQ ID NO:1) with various PTPσ fragments is measured by kinetic ELISA assay. APP fragment corresponds to SEQ ID NO:1, which is a region between E1 and E2 domains. PTPσ fragments used here include IG1,2 (containing IG1 and IG2 domains), ΔLysIG1,2 (containing IG1 and IG2 domains, with lysine 67, 68, 70, 71 mutated to alanine), IG1-FN1 (containing IG1, IG2, IG3 and FN1 domains), ECD (full extracellular domain of PTPσ containing all 3 IG domains and 4 FN domains). Value shown are mean±SEM, n=3 for each group. ***, p≤0.001, Student t test, comparison with the IG1,2.
(§2) Domain regions were subcloned from human APP695 (construct by Denis Selkoe and Tracy Yang labs purchased through Addgene.com) and PTPσ (constructs from Radu Aricescu lab). Recombinant APP and PTPσ proteins were tested in solid phase ELISA binding assays to define the binding regions on each partner. […] Comparing APP binding strength of difference PTPσ fragments, it appears that inclusion of the fibronectin (FN) domains of PTPσ weakens the interaction with APP, likely due to folding of PTPσ that covers up the ligand binding site in its IG1 domain^61.

PTPσ = experiment: Solid phase ELISA binding of recombinant APP domains to PTPσ; design: species or system human; conditions: recombinant proteins, solid phase ELISA binding assay
Experimental: as §1, §2

Row | Molecule | Binding of PTPσ fragment with APP SEQ ID NO:1 [1] | Interaction of APP region with PTPσ (PTPσ)
1 | Full PTPσ extracellular domain: full extracellular domain of PTPσ containing all 3 IG domains and 4 FN domains (protein, UniProt Q13332 30-1282, looked up, extracellular domain, full extracellular domain of PTPσ containing all 3 IG domains and 4 FN domains) extracellular domain: EEPPRFIKEPKDQIGVSGGVASFVCQATGDPKPRVTWNKKGKKVNSQRFETIEFDESAGAVLRIQPLRTPRDENVYECVAQNSVGEITVHAKLTVLREDQLPSGFPNIDMGPQLKVVERTRTATMLCAASGNPDPEITWFKDFLPVDPSASNGRIKQLRSETFESTPIRGALQIESSEETDQGKYECVATNSAGVRYSSPANLYVRELREVRRVAPRFSILPMSHEIMPGGNVNITCVAVGSPMPYVKWMQGAEDLTPEDDMPVGRNVLELTDVKDSANYTCVAMSSLGVIEAVAQITVKSLPKAPGTPMVTENTATSITITWDSGNPDPVSYYVIEYKSKSQDGPYQIKEDITTTRYSIGGLSPNSEYEIWVSAVNSIGQGPPSESVVTRTGEQAPASAPRNVQARMLSATTMIVQWEEPVEPNGLIRGYRVYYTMEPEHPVGNWQKHNVDDSLLTTVGSLLEDETYTVRVLAFTSVGDGPLSDPIQVKTQQGVPGQPMNLRAEARSETSITLSWSPPRQESIIKYELLFREGDHGREVGRTFDPTTSYVVEDLKPNTEYAFRLAARSPQGLGAFTPVVRQRTLQSKPSAPPQDVKCVSVRSTAILVSWRPPPPETHNGALVGYSVRYRPLGSEDPEPKEVNGIPPTTTQILLEALEKWTQYRITTVAHTEVGPGPESSPVVVRTDEDVPSAPPRKVEAEALNATAIRVLWRSPAPGRQHGQIRGYQVHYVRMEGAEARGPPRIKDVMLADAQWETDDTAEYEMVITNLQPETAYSITVAAYTMKGDGARSKPKVVVTKGAVLGRPTLSVQQTPEGSLLARWEPPAGTAEDQVLGYRLQFGREDSTPLATLEFPPSEDRYTASGVHKGATYVFRLAARSRGGLGEEAAEVLSIPEDTPRGHPQILEAAGNASAGTVLLRWLPPVPAERNGAIVKYTVAVREAGALGPARETELPAAAEPGAENALTLQGLKPDTAYDLQVRAHTRRGPGPFSPPVRYRTFLRDQVSPKNFKVKMIMKTSVLLSWEFPDNYNSPTPYKIQYNGLTLDVDGRTTKKLITHLKPHTFYNFVLTNRGSSLGGLQQTVTAWTAFNLLNGKPSVAPKPDADGFIMVYLPDGQSPVPVQSYFIVMVPLRKSRGGQFLTPLGSPEDMDLEELIQDISRLQRRSLRHSRQLEVPRPYIAARFSVLPPTFHPGDQKQYGGFDNRGLEPGHRYVLFVLAVLQKSEPTFAASPFSDPFQLDNPDPQPIVDGEEG | nearly lost binding | 
2 | … (protein, recombinant human APP fragment, the region between E1 and E2 domains) AEESDNVDSADAEEDDSDVWWGGADTDYADGSEDKVVEVAEEEEVAEVEEEEADDDEDDEDGDEVEEEAEEPYEEATERTTSIATTTTTTTESVEEVVR |  | high affinity
